Literature values as cited in PMC8044391.
pKd: −log10 of the molar value.

Target: ICAM-1 (Homo sapiens) (UniProt P05362)
Sequence (P05362 28-480): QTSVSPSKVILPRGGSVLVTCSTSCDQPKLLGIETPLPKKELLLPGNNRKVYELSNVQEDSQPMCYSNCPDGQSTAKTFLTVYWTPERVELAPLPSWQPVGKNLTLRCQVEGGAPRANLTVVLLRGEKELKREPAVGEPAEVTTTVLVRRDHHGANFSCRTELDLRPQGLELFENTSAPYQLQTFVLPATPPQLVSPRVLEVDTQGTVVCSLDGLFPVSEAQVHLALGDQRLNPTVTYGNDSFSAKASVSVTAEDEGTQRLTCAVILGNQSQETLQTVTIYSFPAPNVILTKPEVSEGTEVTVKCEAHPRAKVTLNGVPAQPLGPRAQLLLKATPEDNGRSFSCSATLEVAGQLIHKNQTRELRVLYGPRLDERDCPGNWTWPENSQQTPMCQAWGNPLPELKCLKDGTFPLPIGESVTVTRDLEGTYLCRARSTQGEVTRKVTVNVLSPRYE

Chain of integrin αLβ2 (P20701 26-1090): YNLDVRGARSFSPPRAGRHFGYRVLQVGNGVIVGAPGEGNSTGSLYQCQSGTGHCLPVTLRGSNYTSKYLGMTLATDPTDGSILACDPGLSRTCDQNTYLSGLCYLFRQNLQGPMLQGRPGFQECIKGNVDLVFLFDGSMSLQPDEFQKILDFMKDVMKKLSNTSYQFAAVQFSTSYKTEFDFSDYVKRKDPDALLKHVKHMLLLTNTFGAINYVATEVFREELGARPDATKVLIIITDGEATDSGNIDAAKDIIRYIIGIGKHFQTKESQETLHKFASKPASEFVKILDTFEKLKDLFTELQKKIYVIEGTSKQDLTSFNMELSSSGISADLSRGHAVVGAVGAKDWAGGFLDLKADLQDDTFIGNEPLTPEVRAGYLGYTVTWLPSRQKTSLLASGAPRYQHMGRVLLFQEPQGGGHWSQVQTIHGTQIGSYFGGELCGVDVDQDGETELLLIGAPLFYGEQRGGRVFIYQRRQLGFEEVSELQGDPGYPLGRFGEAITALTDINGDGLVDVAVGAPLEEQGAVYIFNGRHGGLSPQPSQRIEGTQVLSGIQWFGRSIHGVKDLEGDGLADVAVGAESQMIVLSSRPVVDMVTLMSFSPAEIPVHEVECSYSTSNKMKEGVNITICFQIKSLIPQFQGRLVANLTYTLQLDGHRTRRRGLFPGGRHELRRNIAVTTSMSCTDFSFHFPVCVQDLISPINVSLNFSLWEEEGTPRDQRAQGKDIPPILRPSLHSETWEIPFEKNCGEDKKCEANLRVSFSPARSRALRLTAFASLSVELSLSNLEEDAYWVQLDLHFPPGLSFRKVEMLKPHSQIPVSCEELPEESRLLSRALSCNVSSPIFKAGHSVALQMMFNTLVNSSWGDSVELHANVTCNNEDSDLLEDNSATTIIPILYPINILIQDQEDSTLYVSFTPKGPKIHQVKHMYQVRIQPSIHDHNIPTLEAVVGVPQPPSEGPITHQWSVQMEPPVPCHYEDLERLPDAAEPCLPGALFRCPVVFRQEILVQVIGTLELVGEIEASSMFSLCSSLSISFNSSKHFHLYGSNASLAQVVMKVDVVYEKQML
Chain of integrin αLβ2 (P05107 23-700, further chain): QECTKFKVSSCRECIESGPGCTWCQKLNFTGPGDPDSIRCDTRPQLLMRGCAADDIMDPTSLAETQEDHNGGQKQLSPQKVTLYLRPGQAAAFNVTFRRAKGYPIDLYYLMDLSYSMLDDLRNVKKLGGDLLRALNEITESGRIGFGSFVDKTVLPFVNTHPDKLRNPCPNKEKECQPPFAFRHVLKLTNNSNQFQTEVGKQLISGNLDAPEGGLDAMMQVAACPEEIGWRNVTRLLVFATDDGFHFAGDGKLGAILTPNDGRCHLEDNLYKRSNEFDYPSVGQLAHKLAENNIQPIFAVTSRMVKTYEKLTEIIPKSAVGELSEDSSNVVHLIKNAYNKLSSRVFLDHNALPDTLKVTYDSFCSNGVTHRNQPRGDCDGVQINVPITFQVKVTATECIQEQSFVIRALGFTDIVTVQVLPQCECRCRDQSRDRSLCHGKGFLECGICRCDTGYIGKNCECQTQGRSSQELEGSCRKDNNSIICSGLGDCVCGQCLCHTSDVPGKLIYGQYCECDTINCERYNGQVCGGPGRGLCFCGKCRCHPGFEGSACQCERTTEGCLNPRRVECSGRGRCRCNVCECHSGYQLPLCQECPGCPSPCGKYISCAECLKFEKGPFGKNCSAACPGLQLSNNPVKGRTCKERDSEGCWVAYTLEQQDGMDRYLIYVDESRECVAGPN

- pKd: 4.59
Substance: integrin αLβ2 (from UniProt P20701)
